The values below are quoted from earlier work in patent US20140011241A1, “Method enabling isomerization process flows at lower pH, lower temperature, and in the presence of certain inhibiting compounds by using the xylose isomerase enzyme from the microorganism Fulvimarina pelagi” (priority 2011, published 2014).

The subject of this data set is xylose isomerase.

B1: xylose isomerase from Thermus thermophilus: xylose isomerase from Thermus thermophilus and mutants derived from it (U.S. Pat. No. 6,475,768) (protein, UniProt P26997 1-387, looked up)
Xylose isomerase: MYEPKPEHRFTFGLWTVGNVGRDPFGDAVRERLDPVYVVHKLAELGAYGVNLHDEDLIPRGTPPQERDQIVRRFKKALDETGLKVPMVTANLFSDPAFKDGAFTSPDPWVRAYALRKSLETMDLGAELGAEIYVVWPGREGAEVEATGKARKVWDWVREALNFMAAYAEDQGYGYRFALEPKPNEPRGDIYFATVGSMLAFIHTLDRPERFGLNPEFAHETMAGLNFVHAVAQALDAGKLFHIDLNDQRMSRFDQDLRFGSENLKAAFFLVDLLESSGYQGPRHFDAHALRTEDEEGVWAFARGCMRTYLILKERAEAFREDPEVKELLAAYYQEDPAALALLGPYSREKAEALKRAELPLEAKRRRGYALERLDQLAVEYLLGVRG
With B1, the “activity at low temperature” value is “very low” and the “pH at which active” value is 6.
